The labels stand for the following.
B1: Vκ1/VH4 consensus λ-capped (TNF-specific scFv) (scFv)
scFv: DIQMTQSPSSLSASVGDRVTITCQASQSISDWLAWYQQKPGKAPKLLIYGASRLASGVPSRFSGSGSGTDFTLTISSLQPEDFATYYCQQGWSDSYVDNLFGGGTKLTVLGGGGGSGGGGSGGGGSGGGGSQVQLQESGPGLVKPSETLSLTCTVSGFSLSSGAMSWIRQPPGKGLEWIGVIISSGATYYASWAKGRVTISVDTSKNQFSLKLSSVTAADTAVYYCARGGPDDSNSMGTFDPWGQGTLVTVSS
notes: scFv; also called capped Vκ1/VH4 consensus molecule
B2: Vκ1/VH4 consensus (T24K, T84S) λ-capped (TNF-specific scFv) (scFv)
scFv: B1 scFv with T154K, T204S
notes: scFv; also called Vκ1/VH4mut; mutant variant of Vκ1/VH4
B3: Vκ3/VH4 consensus λ-capped (TNF-specific scFv) (scFv)
scFv: DIVLTQSPATLSLSPGERATLSCQASQSISDWLAWYQQKPGQAPRLLIYGASRLASGVPARFSGSGSGTDFTLTISSLEPEDFAVYYCQQGWSDSYVDNLFGGGTKLTVLGGGGGSGGGGSGGGGSGGGGSQVQLQESGPGLVKPSETLSLTCTVSGFSLSSGAMSWIRQPPGKGLEWIGVIISSGATYYASWAKGRVTISVDTSKNQFSLKLSSVTAADTAVYYCARGGPDDSNSMGTFDPWGQGTLVTVSS
notes: scFv
B4: Vκ3/VH4 consensus (T24K, T84S) λ-capped (TNF-specific scFv) (scFv)
scFv: B3 scFv with T154K, T204S
notes: scFv; also called Vκ3/VH4mut

Here are results for four molecules from US20200255533A1 (NUMAB THERAPEUTICS, published 2020).

Changes are numbered by the printed parent chain. Numbers in names are those of the source.

For the assay, the target named is human TNF (human, UniProt P01375 77-233). As to the kind of experiment: SPR, scFv. On the technique in general: Surface plasmon resonance follows binding to a sensor surface in real time, without labels.
human TNF, sequence (P01375 77-233 limits assumed): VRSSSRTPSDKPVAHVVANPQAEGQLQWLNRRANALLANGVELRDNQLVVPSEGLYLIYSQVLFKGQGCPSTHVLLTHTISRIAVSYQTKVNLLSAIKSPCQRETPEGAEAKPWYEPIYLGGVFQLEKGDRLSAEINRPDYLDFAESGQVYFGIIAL
The Kd is the concentration at which binding is half-saturated. One may read the koff as the rate constant with which the complex falls apart. By kon is commonly meant the rate constant with which the complex forms. Lower therefore signals slower complex formation. Regarding B1, the Kd was found to be 0.0533 nM, the koff was 3.36e-05 s⁻¹ and the association rate constant (kon) was found to be 631000 M⁻¹ s⁻¹.

The molecule B2 had a Kd of 0.043 nM, a koff of 3.28e-05 s⁻¹ and a kon of 764000 M⁻¹ s⁻¹.

B3 had a Kd of 0.119 nM, a koff of 5.25e-05 s⁻¹ and a kon of 440000 M⁻¹ s⁻¹.

As to B4, the Kd came out at 0.0793 nM, the off-rate (koff) is 3.09e-05 s⁻¹ and the kon stood at 390000 M⁻¹ s⁻¹.
